Source: patent US20060073152A1

Columns and labels:
Experiment in all cases: peptide competition for albumin
[1] = molecular target: mouse serum albumin (mouse), P07724
[2] = molecular target: T1, rabbit serum albumin (rabbit), P49065
T1 chain: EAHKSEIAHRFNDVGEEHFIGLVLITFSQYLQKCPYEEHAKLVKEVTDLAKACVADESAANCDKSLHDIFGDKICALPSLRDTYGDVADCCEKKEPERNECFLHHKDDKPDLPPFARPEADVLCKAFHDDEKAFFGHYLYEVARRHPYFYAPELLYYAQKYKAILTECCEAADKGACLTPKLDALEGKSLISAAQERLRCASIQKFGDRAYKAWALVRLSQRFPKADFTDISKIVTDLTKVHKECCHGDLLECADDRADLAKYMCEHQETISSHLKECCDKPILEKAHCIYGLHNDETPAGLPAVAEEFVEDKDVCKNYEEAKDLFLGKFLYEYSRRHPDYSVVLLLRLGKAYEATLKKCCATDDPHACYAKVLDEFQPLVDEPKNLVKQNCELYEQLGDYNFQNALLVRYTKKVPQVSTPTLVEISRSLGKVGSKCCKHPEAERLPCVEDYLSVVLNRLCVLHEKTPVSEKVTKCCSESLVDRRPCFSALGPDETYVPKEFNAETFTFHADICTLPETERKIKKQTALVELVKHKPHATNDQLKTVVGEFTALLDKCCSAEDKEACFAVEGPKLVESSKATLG

[3] = molecular target: T2, rat serum albumin (rat), P02770
T2 chain: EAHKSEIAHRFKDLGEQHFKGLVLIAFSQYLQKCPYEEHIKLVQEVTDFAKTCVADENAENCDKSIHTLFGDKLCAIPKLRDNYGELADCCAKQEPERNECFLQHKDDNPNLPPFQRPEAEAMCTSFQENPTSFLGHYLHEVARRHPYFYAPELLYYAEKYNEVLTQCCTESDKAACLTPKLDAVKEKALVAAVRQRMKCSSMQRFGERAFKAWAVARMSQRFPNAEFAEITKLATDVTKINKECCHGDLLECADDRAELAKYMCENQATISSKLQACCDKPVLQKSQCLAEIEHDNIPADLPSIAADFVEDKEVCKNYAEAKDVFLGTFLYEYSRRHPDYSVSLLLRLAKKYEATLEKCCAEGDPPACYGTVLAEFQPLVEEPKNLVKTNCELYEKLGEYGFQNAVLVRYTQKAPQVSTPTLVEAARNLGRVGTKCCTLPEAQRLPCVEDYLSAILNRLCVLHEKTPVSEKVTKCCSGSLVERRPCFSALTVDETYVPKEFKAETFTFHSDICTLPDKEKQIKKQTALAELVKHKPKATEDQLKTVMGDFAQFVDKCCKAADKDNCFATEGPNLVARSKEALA

Chain of mouse serum albumin (mouse), P07724 (P07724 25-608 limits assumed): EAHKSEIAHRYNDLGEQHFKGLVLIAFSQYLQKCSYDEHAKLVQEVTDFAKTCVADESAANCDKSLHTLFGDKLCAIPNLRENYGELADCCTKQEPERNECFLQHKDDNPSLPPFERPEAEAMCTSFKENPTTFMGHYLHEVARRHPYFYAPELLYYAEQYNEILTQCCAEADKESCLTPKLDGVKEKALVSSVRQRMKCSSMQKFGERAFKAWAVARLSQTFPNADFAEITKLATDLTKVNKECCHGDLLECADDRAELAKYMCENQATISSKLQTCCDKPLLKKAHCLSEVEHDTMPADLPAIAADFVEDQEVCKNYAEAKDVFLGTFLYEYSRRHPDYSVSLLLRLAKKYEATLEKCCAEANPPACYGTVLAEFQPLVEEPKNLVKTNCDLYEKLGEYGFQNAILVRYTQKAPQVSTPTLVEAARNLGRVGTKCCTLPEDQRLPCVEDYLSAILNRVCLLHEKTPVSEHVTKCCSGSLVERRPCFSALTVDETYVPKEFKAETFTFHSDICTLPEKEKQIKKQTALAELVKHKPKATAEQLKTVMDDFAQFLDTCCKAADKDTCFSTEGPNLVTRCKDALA

- IC50 [1]: 188 nM
- IC50 [2]: 3200 nM
- IC50 [3]: 2480 nM
B1: SA13 (peptide)
peptide: RLMEDICLARWGCLWEDD
modifications: not checked
